System: TAB1 (437-504)

With TAK1-HA the “in vitro kinase assay of immunoprecipitated TAK1 (activation of XMEK2 (SEK1), phosphorylation of KN-p38 (MPK2))” value was “TAB1 increases TAK1 kinase activity”.

— patent publication US20060172380
